This note sets out measurements from patent publication US20210101953A1 (ZHEJIANG K2 ONCOLOGY, published 2021).

The target in assay [1] is T1, EpCAM protein on Skov3 cells (UniProt P16422 24-314, limits assumed).
T1 construct: whole, on cells; also called cellular level EpCAM; epithelial cell adhesion molecule
T1 sequence (looked up): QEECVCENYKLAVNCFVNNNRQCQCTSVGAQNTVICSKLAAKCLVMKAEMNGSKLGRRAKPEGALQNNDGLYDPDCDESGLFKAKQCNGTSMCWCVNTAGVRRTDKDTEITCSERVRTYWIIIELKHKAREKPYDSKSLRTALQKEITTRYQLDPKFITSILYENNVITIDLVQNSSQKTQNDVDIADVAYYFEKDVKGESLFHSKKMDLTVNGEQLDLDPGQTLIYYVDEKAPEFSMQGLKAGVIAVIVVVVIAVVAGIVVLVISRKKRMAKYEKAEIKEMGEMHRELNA
Nature of the assay: staining of fixed Skov3 cells, detected with anti-human IL-2 antibody and DAB. Here is the method:
Skov3 cells have adherent growth in a 24-pore plate for 24 hours and are fixed for 10 minutes using 4% PFA (paraformaldehyde); 5% BSA is added to block non-specific antigens; a primary antibody of anti-human IL-2 is added for incubation for 1 hour; after washing is performed 3 times with PBST, a secondary antibody is added; after incubation is performed for 1 hour, DAB (diaminobenzidine) is added for color development; and after washing is performed with PBS, photographing is performed under a bright-field microscope.

The target in assay [2] is T2, recombinant human EpCAM protein (Sino biologics, Product Number 10694-H08H) (human, UniProt P16422 24-265).
T2 construct: Bought protein coated on the ELISA plate at 1 ug/ml
T2 sequence (looked up): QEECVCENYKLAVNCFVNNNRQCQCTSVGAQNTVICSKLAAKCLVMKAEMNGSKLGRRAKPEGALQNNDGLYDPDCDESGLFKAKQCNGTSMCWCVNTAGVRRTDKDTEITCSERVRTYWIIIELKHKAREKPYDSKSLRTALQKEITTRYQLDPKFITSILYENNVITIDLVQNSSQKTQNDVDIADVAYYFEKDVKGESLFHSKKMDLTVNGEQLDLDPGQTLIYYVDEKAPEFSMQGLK
Nature of the assay: ELISA on coated recombinant human EpCAM, bound protein detected by its IL-2 part with an IL-2 ELISA kit. Here is the method:
2. […] [0069] ii. IL-2 level detection: an IL-2 ELISA commercial kit (Manufacturer: Biolegend; Product Number 431801) is adopted; the brief steps include adding a primary antibody of anti-human IL-2, incubating for 1 hour and then adding a horseradish peroxidase labeled secondary antibody to obtain a […] signal by TMB color development. [0070] iii. Data processing: a standard curve is obtained by using an IL-2 standard product included in the kit, and the IL-2 signal level corresponding to the amount of protein bound to EpCAM is calculated, which represents the level of the protein bound to EpCAM.
For orientation: An ELISA detects its analyte on a solid surface through an enzyme-linked reagent.

B1: fusion protein EPIL-2-2303301 of the anti-EpCAM single-chain antibody and IL-2 (other)
chain: APTSSSTKKTQLQLEHLLLDLQMILNGINNYKNPKLTRMLTFKFYMPKKATELKHLQCLEEELKPLEEALNLAPSKNFHLRPRDLISNINVIVLELKGSETTFMCEYADETATIVEFLNRWITFSQSTISTLTGGGGSGGGGSGGGGSGGGGSEVQLLEQSGAELVKPGASVKISCKASGYAFTNYWLGWVKQRPGHGLEWIGDLFPGSGNTHYNERFRGKATLTADKSSSTAFMQLSSLTSEDSAVYFCARLRNWDEAMDYWGQGTTVTVSSGGGGSGGGGSGGGGSELVMTQSPSYLAASPGETITINCRASKSISKYLAWYQEKPGKTNKLLIYSGSTLQSGIPSRFSGSGSGTDFTLTISSLEPEDFAMYYCQQHNEYPYTFGGGTKLEIKHHHHHH
notes: Single chain; Expressed in HEK293 cells and purified on Ni-Sepharose
As for B1, the binding result in assay [1] and in assay [2] was “binds” in each case.

B2: fusion protein EPIL-2-2303407 of the anti-EpCAM single-chain antibody and IL-2 (other)
chain: APTSSSTKKTQLQLEHLLLDLQMILNGINNYKNPKLTRMLTFKFYMPKKATELKHLQCLEEELKPLEEALNLAPSKNFHLRPRDLISNINVIVLELKGSETTFMCEYADETATIVEFLNRWITFSQSTISTLTGGGGSGGGGSGGGGSGGGGSEVQLLEQSGAELARPGASVKLSCKASGYTFTNYGLSWVKQRPGQVLEWIGEVYPRIGNAYYNEKFKGKATLTADKSSSTASMELRSLTSEDSAVYFCARRGSYDTNYDWYFDVWGQGTTVTVSSGGGGSGGGGSGGGGSELVMTQTPLSLPVSLGDQASISCRSSQSLVHSNGNTYLHWYLQKPGQSPKLLIYKVSNRFSGVPDRFSGSGSGTDFTLKISRVEAEDLGVYFCSQSTHVPYTFGGGTKLEIKHHHHHH
notes: as for B1
Turning to B2, the binding result in assay [1] and in assay [2] was “binds” in each case.
